From patent US20220380801A1, “TRIPARTITE SYSTEMS FOR PROTEIN DIMERIZATION AND METHODS OF USE” (priority 2019, published 2022)
Where two headings read alike, the source gives them in different places.

B1: PRSIM_36: Tn3 PRSIM binding molecule, SEQ ID NO: 8 (protein)
chain: RLDAPSQIEVKDVTDTTALITWSWPRDDDYDIWYFELTYGIKDVPGDRTTIKLLNYASPYSIGNLKPDTEYEVSLISVVPDTYGRGTSNPAKITFKTGL
modifications: PRSIM_36
B2: PRSIM_01: scFv PRSIM binding molecule, SEQ ID NO: 10 (protein)
scFv: QVQLVQSGAEVKKPGSSVKVSCKASGGTFSSYAISWVRQAPGQGLEWMGGIIPIFGTANYAQKFQGRVTITADESTSTAYMELSSLRSEDTAVYYCARGQGYITVFDYWGQGTLVTVSSGGGGSGGGGSGGGGSAQSVLTQPPSASGTPGQRVTISCSGSSSNIGSNTVNWYQQLPGTAPKLLIYSNNQRPSGVPDRFSGSKSGTSASLAISGLQSEDEADYYCAAWDHHWEQVVFGGGTKLTVL
modifications: PRSIM_01
B3: PRSIM_32: Tn3 PRSIM binding molecule, SEQ ID NO: 6 (protein)
chain: RLDAPSQIEVKDVTDTTALITWWSPRYYYASISGFELTYGIKDVPGDRTTIKLDYASNDYSIGNLKPDTEYEVSLISWNYGDWRYSSSNPAKITFKTGL
modifications: PRSIM_32
B4: PRSIM_47: Tn3 PRSIM binding molecule, SEQ ID NO: 9 (protein)
chain: RLDAPSQIEVKDVTDTTALITWSRPGVSIWYFELTYGIKDVPGDRTTIKLDYRSYYYSIGNLKPDTEYEVSLISGSYGLVGVRASNPAKITFKTGL
modifications: PRSIM_47

Experiments:
[1] = molecular target: T1, HCV NS3/4A PR (S139A) (Hepatitis C virus subtype 1a, UniProt A8DG50, A1066T/I1043Q/I1044E/L1039E/L1040E/L1047Q/S1165A, form not given); test: Biacore 8K binding kinetics of PRSIM binding molecules; settings: 10 nM simeprevir present
Protocol: The scFv and Tn3 PRSIM binding molecules were covalently immobilised to a CM5 chip surface using standard amine coupling techniques at a concentration of 1 μg/ml in 10 mM sodium acetate pH 4.5.
(§1) The HCV NS3/4A PR (S139A), or BSA control, was diluted 1:4 (1.25-20 nM)±10 nM simeprevir in 10 mM Hepes pH 7.4, 150 mM NaCl, 0.05% Surfactant P20, 0.01% DMSO, ensuring constant simeprevir and DMSO concentration. The samples were flowed over the chip at 50 μl/min using single cycle kinetics, with 120 sec association and 600 sec dissociation. The chip surface was regenerated with two 20 sec pulses of 10 mM Glycine-HCl pH 3.0. The final sensorgrams were analysed using the Biacore 8K Evaluation Software and the affinity constant KD was determined using a 1:1 binding model. The same method was used for measuring the affinity of the HCV NS3/4A PR mutants for PRSIM_23 with minor deviations. The mutants were diluted 1:4 (2.5-40 nM)±simeprevir in 10 mM Hepes pH 7.4, 150 mM NaCl, 0.05% Surfactant P20, 0.08% DMSO, ensuring constant simeprevir and DMSO concentration. The samples were flowed over the chip at 50 μl/min using single cycle kinetics, with 180 sec association and 600 sec dissociation.

[2] = molecular target: BSA (Bos taurus, UniProt P02769); test: Biacore 8K BSA control; type: binding; set-up: key: # = no binding; * = minimal non-specific binding; settings: 10 nM simeprevir present
Protocol: as §1

[3] = tested on: luciferase reporter gene in HEK293 cells; test: Transcriptional regulation assay (split transcription factor), luciferase reporter; type: cell-based, human; settings: one copy; for EC50: simeprevir dose-response
Description: The iDimerize regulated transcription system (Takara) was used to test the ability of PRSIM-based CIDs to regulate gene expression. […] The DBD and AD are separately fused to the two protein components of a CID such that, only in the presence of the small molecule inducer, the AD is brought into close proximity to the DBD, recruiting the transcription machinery to a promoter harbouring the DBD recognition sites. The iDimerize regulated transcription system (Takara) provides two vectors, pHet-Act1-2 and pZFHD1-Luciferase. The pHet-Act1-2 vector encodes two fusion proteins that represent a positive control: one is a fusion between FRB (T82L mutant; DmrC) and an activation domain (AD) from human p65 (SEQ ID NO: 42); the other is a fusion protein comprised of a DNA binding domain (ZFHD1) (SEQ ID NO: 43) fused to three tandem copies of FKBP12 (DmrA). These sequences are preceded by a CMV promoter and separated by an internal ribosome entry site (IRES). The ZFHD1 vector encodes luciferase preceded by an inducible promoter consisting of 12 copies of the recognition sequence of the ZFHD1 DBD upstream of a minimal IL-2 promoter. Binding of the DBD to its recognition sequence and recruitment of the transcriptional machinery by the AD initiates transcription of the luciferase reporter gene. The DNA sequence encoding HCV NS3/4A PR (S139A) was purchased as a DNA string from GeneArt and cloned into the pHet-Act1-2 vector as either an N-terminal fusion partner to the activation domain (SEQ ID NO: 44) (replacing FRB) or as a C-terminal fusion partner to the DNA binding domain (SEQ ID NO: 45) (replacing FKBP12) with flexible linkers (TGGGGSGGGGS (SEQ ID NO: 185) and SA, respectively) between the fusion partners. Subsequently, sequences encoding one copy of a panel of 12 PRSIM molecules (Table 2) were purchased as DNA strings from GeneArt and were cloned using Gibson assembly into the HCV NS3/4A PR (S139A)-containing pHetAct1-2 constructs described above, as a fusion partner to either the DBD (SEQ ID NOS: 46-56) or AD (SEQ ID NOS: 57-67), respectively. An equivalent construct was generated to replace the three copies of FKBP12 in pHet-Act1-2 with a single copy of FKBP12. The sequence of the constructs encoding both activation domain and DNA-binding domain fusion proteins was confirmed by Sanger sequencing of the entire coding region.
Sequences encoding the three HCV NS3/4A PR (S139A) mutants (Table 6) were purchased as DNA strings from GeneArt and were cloned using Gibson assembly into the pHetAct1-2 HCV NS3/4A PR (S139A)-PRSIM_23 (3 tandem copy) construct described above as a fusion partner to the AD (SEQ ID NOs: 211-216).
All transcriptional regulation assays were performed in adherent HEK293 cells cultured in 384-well plates. Cells enzymatically dissociated from a tissue culture flask were counted and plated at 7.5×10^3 cells/well in a 384-well plate. The plates were incubated overnight at 37° C. with 5% CO2 to allow the cells to adhere. On day 2, the cells were co-transfected with a pHet-Act1-2 plasmid (containing the FRB:FKBP12 control fusion proteins (Clontech) or the HCV NS3/4A PR (S139A):PRSIM fusion proteins) and a pZFHD1 plasmid (encoding either luciferase (Clontech) or NanoLuc-PEST (as described above)) using Lipofectamine LTX (ThermoFisher). On day 3, wells were treated with different concentrations of either A/C heterodimeriser (for the FRB:FKBP12 control), simeprevir or with vehicle control, and 24 hours later luminescence was quantified with an Envision plate reader immediately following addition of SteadyGlo luciferase substrate (Promega) or Nano-Glo Vivazine luciferase substrate (Promega). Alternatively, reverse transfections were carried out on Day 1, addition of dimeriser on Day 2 and luminescence quantified 24 hours later on Day 3.
Luminescence readings were converted into fold-change by dividing the signal in the presence of simeprevir by that in the absence of simeprevir.

[4] = molecular target: T1, HCV NS3/4A PR (S139A); test: HTRF binding screen; settings: in the presence of simeprevir
Protocol: scFv and Tn3 PRSIM binding molecules that were selective for the HCV NS3/4A PR (S139A) were identified in homogeneous time-resolved fluorescence (HTRF®) assays run in parallel to measure binding in the presence and absence of simeprevir. HCV NS3/4A PR (S139A), and serial dilutions of purified PRSIM binding molecules, were prepared in assay buffer (PBS containing 0.4 M potassium fluoride and 0.1% BSA). Streptavidin cryptate (Cisbio) was pre-mixed with either anti-FLAG XL665 (to detect the Tn3 molecules) or anti-c-myc XL665 (to detect the scFv molecules) in assay buffer. For each assay 2.5 μl of sample titration was added to 2.5 μl HCV NS3/4A PR (S139A) and 2.5 μl of pre-mixed detection reagents. Either 2.5 μl simeprevir or 2.5 μl of a DMSO blank were also added to each well. Background was defined using wells with zero sample addition. Assay plates were incubated overnight at 4° C., prior to reading the time resolved fluorescence at 620 nm and 665 nm emission wavelengths using a PerkinElmer Envision plate reader. Data was analysed by calculating % Delta F values for each sample. Delta F was determined according to equation 1.
% Delta F=((sample 665 nm/620 nm ratio value)−(background 665 nm/620 nm ratio value)/(background 665 nm/620 nm ratio value))×100 Equation 1
Selective binding molecules are defined as those scFv and Tn3 PRSIM binding molecules that bind to HCV NS3/4A PR (S139A) in complex with simeprevir and no binding to HCV NS3/4A PR (S139A).

[5] = tested on: split Nanoluciferase (LgBiT/SmBiT) reconstitution in HEK293 cells; test: Split NanoLuc reconstitution assay (NanoBiT); type: cell-based, human; settings: 100 nM simeprevir over no simeprevir; LgBiT fused to the C-terminus of the PRSIM binding module
Protocol: The ability of the PRSIM binding molecules to promote dimerization of two proteins to which they are fused was assessed with the NanoBiT system (Promega) that measures the reconstitution of a split Nanoluciferase (NanoLuc) and the resultant luminescence upon supply of a live cell imaging Nano-Glo NanoLuc substrate (FIG. 8). In the NanoBiT system, one interaction partner is fused via a flexible linker to an 18 kDa fragment of NanoLuc termed LgBiT (for “large bit”) (SEQ ID NO: 16) and the other is fused via an equivalent linker to a 1.3 kDa peptide SmBiT (“small bit”) (SEQ ID NO: 17). LgBit and SmBiT have a low affinity (190 μM) for each other in the absence of interacting partners and will not reconstitute to form an active luciferase enzyme. Once fused to the interacting proteins of a CID and supplied with inducer, they will reconstitute, and luminescence can be measured. The NanoBiT system supplies two sets of control proteins fused to LgBiT and SmBiT: a set of constitutively interacting proteins PRKAR2A:PRKACA; and the FRB:FKBP12 pair whose dimerization can be induced with rapamycin.
To establish the optimal orientation of the HCV NS3/4A PR (S139A) and PRSIM components, constructs whereby HCV NS3/4A PR (S139A) was fused at either the N- or C-terminus to SmBiT (SEQ ID NOs: 18 and 19, respectively) and a parallel set of constructs for each PRSIM binding module fused to either the N- or C-terminus of LgBiT (SEQ ID NOS: 20-30 and 31-41, respectively). The NanoBiT kit (Promega) supplies a set of vectors enabling these constructs to be generated. DNA strings encoding HCV NS3/4A PR (S139A) and the PRSIM molecules were purchased from GeneArt and amplified via PCR with primers with extensions containing restriction sites compatible with the NanoBiT vectors and were cloned via Gibson assembly. All constructs were verified via Sanger sequencing of the entire coding sequence.
All NanoBiT screens were performed in adherent HEK293 cells cultured in 96-well plates. Cells enzymatically dissociated from a tissue culture flask were counted and plated at 2×10^4 cells/well in a white, opaque-bottomed 96-well plate (Costar 3917). The plates were incubated overnight at 37° C. with 5% CO2 to allow the cells to adhere. On day 2, plasmids were co-transfected with Lipofectamine LTX (ThermoFisher) at a final concentration of 100 ng/well (50 ng/plasmid, one encoding a SmBiT fusion, the other a LgBiT fusion). On day 3, wells were treated with 100 nM of the appropriate small molecule inducer (rapamycin (FRB:FKBP12) or simeprevir (HCV NS3/4A PR:PRSIM)) or vehicle control, and luminescence was quantified with an Envision plate reader immediately following addition of Nano-Glo Live Cell Substrate (Promega).

[6] = PRSIM fused to AD, read-out: EC50
[7] = PRSIM fused to DBD, read-out: EC50

| Molecule | Rmax [1] | ka [1] | kd [1] | BSA control [2] | Max fold change ([3]; PRSIM fused to AD) | EC50 [3, 6] | Max fold change ([3]; PRSIM fused to DBD) | EC50 [3, 7] | HTRF max. signal (% delta F) [4] | fold-change in luminescence [5] | EC50 ([3]; PRSIM fused to AD) |
| --- | --- | --- | --- | --- | --- | --- | --- | --- | --- | --- | --- |
| B1 | 214.4 RUs | 5.15e+06 M⁻¹ s⁻¹ | 0.0498 s⁻¹ | # | 33.74 | 3.54 nM | 73.3 | 5.66 nM | 1440 % delta F | – | – |
| B2 | – | – | – | – | 5.83 | – | 86.76 | 6.99 nM | – | 16 fold | Ambiguous |
| B3 | 19.9 RUs | 2.51 E+09 M^−1 s^−1 | 40.1 s⁻¹ | # | 2.2 | 12.3 nM | 65.77 | 29.3 nM | 1955 % delta F | – | – |
| B4 | 9 RUs | 1.32e+10 M⁻¹ s⁻¹ | 51.2 s⁻¹ | # | 3.85 | 6.15 nM | 3 | 8.87 nM | 1367 % delta F | – | – |
